Like-named read-outs stand apart in the source and are kept apart here.
Assays:
[1] = DSF thermal stability of BA8 Fab and mutants; assay type: physicochemical
Description: To assess the effect of sulfated peptide binding on the thermal stability of BA8, we performed differential scanning fluorimetry (DSF) measurements (Fig. 2C) ([25]). The melting temperature (Tm) of BA8 forming a complex with the sulfated peptide was 75.6 °C, whereas the pre-binding Tm was 70.8 °C.
We evaluated the stabilizing effect of peptide binding on each mutant using DSF (Fig. S6).
The DSF thermal stability measurements were performed using a CFX Real-Time PCR System (Bio-Rad). First, 1 μl of 100 × SYPRO Orange stain was diluted with 19 μl of 8.3 μM unbound-BA8 Fab or the solution remaining in the cell after ITC measurement. Next, fluorescence was scanned every minute to obtain melting curves of the solutions as they were heated at 1.0 °C/min. The change in the scanned relative fluorescence unit per unit time was recorded, and the temperature at its peak was considered to be the melting temperature (Tm) ([42]).

[2] = test system: sulfated CCR5 on HEK293 cells transfected with CCR5 + TPST2 (C2); assay: Flow cytometry binding to C2 cells; assay type: cell-based
From the text: We prepared model cells with transient overexpression to examine whether BA8 can recognize sulfated full-length CCR5. As referred in the Introduction section, previous research has shown that protein tyrosine sulfotransferases (TPSTs) are responsible for tyrosine sulfation ([10], [11], [12]). Those two isoforms of TPST (TPST1 and TPST2) and CCR5 genes were transiently transfected in the following five combinations to HEK293 cells: Negative Control (NC); CCR5 (C); CCR5 + TPST1 (C1); CCR5 + TPST2 (C2); and CCR5 + TPST1 + TPST2 (C12). Each protein contained the following tag sequences at the C-terminus: CCR5 – FLAG, TPST1 – HA, and TPST2 – Myc. The overexpression of each protein was confirmed by western blotting using tag antibodies (Fig. 5, A and B).
We conducted flow cytometry using these cells to confirm that BA8 can recognize sulfated CCR5 expressed on the cell surface (Fig. 5D).
To quantitatively evaluate the binding ability of BA8 to C2 and C12 cells, we plotted the median fluorescence intensity of antibody binding against BA8 concentration (Fig. 5E). An increase in the signal with increasing antibody concentration was confirmed, and the binding activity was quantitatively evaluated by fitting with a sigmoid function.
HEK293 cells stored in liquid nitrogen were initiated into the culture by thawing. […]

[3] = test system: sulfated N-terminal peptide of CCR5; assay: SPR kinetic interaction analysis of BA8 Fab (wild type and mutants) with the sulfated peptide; assay type: binding; conditions: SPR Biacore 8K, PBS 0.005% Tween 20, global fitting
From the text: To quantitatively evaluate the intermolecular interaction between BA8 and the sulfated N-terminal peptide of CCR5, we prepared a Fab fragment of BA8 as a recombinant protein (Fig. S2, A and B) and conducted kinetic interaction analysis using SPR. The Fab was immobilized on a sensor chip using amine coupling, and the synthesized sulfated and non-sulfated N-terminal peptides of CCR5 were used as the analytes.
To further dissect how molecular recognition occurs, we evaluated the contribution of individual residues of BA8 to the recognition of the sulfated peptide. We analyzed the crystal structure using the PDB PISA server, and we conducted mutation analyses in which the residues predicted to form hydrogen bonds or located at the interface were mutated to alanine (Fig. 3B).
The bindings of the peptides to Fabs were analyzed using a Biacore 8K instrument (Cytiva). Each Fab was immobilized on the surface of a CM5 sensor chip (Cytiva) by the amine-coupling method according to the manufacturer’s instructions in the condition of pH 5.5. The immobilization level reached to about 3000 Response Unit (RU). PBS containing 0.005% Tween 20 was used as the running buffer. The kinetic data were obtained by injection of increasing concentrations of peptides into the sensor chip. The flow rate of the analyte were set to 30 μl/min. The data were analyzed using BIAevaluation software (Cytiva), and the binding affinity as well as kinetic parameters were calculated by a global fitting of the curves.

[4] = Fab immobilized on CM5 chip, sulfated peptide as analyte

B1: BA8: rabbit antibody clone from phage display that specifically recognizes the sulfated N-terminal peptide of CCR5 (antibody, V domains shown)
VH: QSLEESGGGLFKPTDTLTLTCTVSGFSLSSYSIRWVRQAPGNGLEWIGAIGSGGNAYYTSWAKSRSTITRNTNENTVTLKMTSLTVADTATYFCARGGINFGIWGPGTLVTVSS
VL: AAVLTQTPSPVSAAVGSTVTINCQSSQSVYSKNWLSWFQQKPGQPPKQLIYSASTLDSGVPSRFSGSGSGTQFTLTISGVQCDDAATYYCQGTYGDASAFGGGTEVVVK
- melting temperature (Tm), unbound (pre-binding) ([1]; SYPRO Orange, 8.3 μM unbound Fab, heated at 1.0 °C/min): 70.8 °C
- melting temperature (Tm) of BA8 forming a complex with the sulfated peptide ([1]; SYPRO Orange, solution remaining in the cell after ITC measurement, 1.0 °C/min): 75.6 °C
- increase of Tm after forming a complex with the sulfated peptide versus BA8 alone ([1]; complex from the ITC measurement): 4.8 °C
- EC50 ([2]; C2 cells, BA8 full-length IgG, median fluorescence intensity vs concentration, sigmoid fit, read-out: half-maximal binding concentration (BC50)): 3.64 nM
- EC50 ([2]; HEK293 overexpression system, C2 or C12 not specified, read-out: BC50 in overexpression system using HEK293 cells (approximate, discussion)): ~3 nM
- kon ([3]; Fab immobilized on CM5 chip by amine coupling (~3000 RU), sulfated peptide as analyte (2 to 162 nM; 20 nM to 1620 nM for the weak mutants of Fig. 3), 30 μl/min): 251000 mol/L/s
- Kd [3, 4]: 0.809 nM
- koff [3, 4]: 0.000203 s⁻¹

— publication PMC11849073, “Specific recognition mechanism of an antibody to sulfated tyrosine and its potential use in biological research” (The Journal of Biological Chemistry, 2025)
